From the supplement of paper PMC10724198
± gives the standard deviation of the averaged measurements.

How the values were obtained:
Saccharomyces cerevisiae [1] = experiment: protein stability index of tFT-peptide fusion (C-terminal peptide) (PSI (0-1 scale)); higher = more stable (slower turnover)
Method: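 MPS profiling in S. cerevisiae of the tFT-X12 degron library: putative degron peptides plus stable controls, 12 aa, fused to the C-terminus of a sfGFP-mCherry timer. Cells are FACS-sorted into 8 mCherry/sfGFP bins and deep-sequenced. PSI runs from 0 (unstable) to 1 (stable). Backgrounds are wild type, das1Δ and doa10Δ at 30 °C, and wild type, das1Δ, cdc34-1 and cdc53-1 at 37 °C; 2-3 technical replicates each.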

Saccharomyces cerevisiae [2] = experiment: as above; conditions: genetic background: wild type; temperature: 30 C
[3] = genetic background: cdc34-1, temperature: 37 C
[4] = genetic background: cdc53-1, temperature: 37 C
[5] = genetic background: das1 deletion, temperature: 30 C
[6] = genetic background: das1 deletion, temperature: 37 C
[7] = genetic background: doa10 deletion, temperature: 30 C
[8] = genetic background: wild type, temperature: 30 C
[9] = genetic background: wild type, temperature: 37 C
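Further: PSI is a weighted mean of sequencing reads over stability bins, variants kept only with over 10 reads, mCherry proximal and sfGFP distal, peptide attached via GGGS linker.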

Sequence | protein stability index (Saccharomyces cerevisiae [1]; [3]) | protein stability index (Saccharomyces cerevisiae [1]; [4]) | protein stability index (Saccharomyces cerevisiae [1]; [5]) | protein stability index (Saccharomyces cerevisiae [1]; [6]) | protein stability index (Saccharomyces cerevisiae [1]; [7]) | protein stability index (Saccharomyces cerevisiae [1]; [8]) | protein stability index (Saccharomyces cerevisiae [1]; [9]) | protein stability index (Saccharomyces cerevisiae [2])
FFVFVVFFCFGL | 0.321 ± 0.008 | 0.438 ± 0.035 | 0.303 ± 0.023 | 0.444 ± 0.0091 | 0.2809 ± 0.0014 | 0.303 ± 0.0093 | 0.41 ± 0.014 | 0.383 ± 0.047
FGLLLVLASALG | 0.356 ± 0.034 | 0.438 ± 0.026 | 0.318 ± 0.022 | 0.465 ± 0.018 | 0.284 ± 0.024 | 0.307 ± 0.019 | 0.4411 ± 0.0012 | 0.3828 ± 0.0021
FGLMCFIFYVLV | 0.2 ± 0.018 | 0.331 ± 0.03 | 0.236 ± 0.021 | 0.3756 ± 0.0017 | 0.223 ± 0.016 | 0.225 ± 0.018 | 0.337 ± 0.0078 | 0.307 ± 0.057
FHFLFLFSLVSV | 0.294 ± 0.074 | 0.316 ± 0.03 | 0.269 ± 0.038 | 0.412 ± 0.017 | 0.293 ± 0.0034 | 0.279 ± 0.012 | 0.37513 ± 0.00036 | 0.416 ± 0.017
FILLHLLGTIRS | 0.433 ± 0.02 | 0.487 ± 0.0072 | 0.372 ± 0.031 | 0.502 ± 0.023 | 0.337 ± 0.016 | 0.352 ± 0.026 | 0.4948 ± 0.0018 | 0.438 ± 0.016
FIMHRIFMALVI | 0.386 ± 0.055 | 0.415 ± 0.03 | 0.381 ± 0.042 | 0.4786 ± 0.0006 | 0.29 ± 0.017 | 0.253 ± 0.025 | 0.359 ± 0.0092 | 0.341 ± 0.14
FLFCMIFIFRCF | 0.216 ± 0.011 | 0.196 ± 0.026 | 0.233 ± 0.031 | 0.339 ± 0.025 | 0.203 ± 0.025 | 0.165 ± 0.015 | 0.252 ± 0.022 | 0.276 ± 0.1
FLFLFIFYFFCC | 0.269 ± 0.046 | 0.367 ± 0.0077 | 0.327 ± 0.024 | 0.476 ± 0.02 | 0.315 ± 0.0036 | 0.314 ± 0.032 | 0.401 ± 0.06 | 0.389 ± 0.083
FLFLSPLALHVS | 0.444 ± 0.03 | 0.494 ± 0.014 | 0.412 ± 0.022 | 0.513 ± 0.014 | 0.177 ± 0.0097 | 0.212 ± 0.024 | 0.256 ± 0.011 | 0.304 ± 0.01
FLIVLLVIFFGF | 0.275 ± 0.0072 | 0.387 ± 0.019 | 0.276 ± 0.023 | 0.367 ± 0.023 | 0.275 ± 0.018 | 0.269 ± 0.04 | 0.357 ± 0.018 | 0.324 ± 0.006
FLLASSRRICCS | 0.458 ± 0.0088 | 0.486 ± 0.029 | 0.365 ± 0.025 | 0.5347 ± 0.001 | 0.249 ± 0.015 | 0.269 ± 0.028 | 0.47 ± 0.013 | 0.391 ± 0.0082
FLLCGVFFFFFV | 0.323 ± 0.0043 | 0.405 ± 0.046 | 0.288 ± 0.025 | 0.3092 ± 0.00041 | 0.344 ± 0.012 | 0.245 ± 0.032 | 0.319 ± 0.013 | 0.4286 ± 0.0014
FLLGWFLFFVCS | 0.401 ± 0.015 | 0.422 ± 0.019 | 0.32 ± 0.027 | 0.4361 ± 0.0024 | 0.289 ± 0.012 | 0.283 ± 0.027 | 0.393 ± 0.013 | 0.406 ± 0.043
FLLYSILLAFLL | 0.524 ± 0.034 | 0.503 ± 0.02 | 0.415 ± 0.033 | 0.546 ± 0.0071 | 0.37 ± 0.012 | 0.345 ± 0.033 | 0.492 ± 0.037 | 0.436 ± 0.011
FLMLFVVLWLFL | 0.427 ± 0.026 | 0.46 ± 0.0076 | 0.394 ± 0.028 | 0.522 ± 0.071 | 0.389 ± 0.014 | 0.369 ± 0.04 | 0.448 ± 0.0072 | 0.366 ± 0.076
FLPFRVFNFSLV | 0.659 ± 0.031 | 0.713 ± 0.015 | 0.653 ± 0.035 | 0.725 ± 0.015 | 0.22 ± 0.011 | 0.229 ± 0.026 | 0.441 ± 0.05 | 0.38 ± 0.063
FLSFARSSCLWF | 0.678 ± 0.028 | 0.7423 ± 0.0011 | 0.657 ± 0.015 | 0.739 ± 0.014 | 0.676 ± 0.03 | 0.666 ± 0.0085 | 0.7115 ± 0.00098 | 0.748 ± 0.016
FMSAGVSWIFFV | 0.579 ± 0.021 | 0.7146 ± 0.0024 | 0.601 ± 0.021 | 0.7503 ± 0.0043 | 0.105 ± 0.013 | 0.13 ± 0.012 | 0.129 ± 0.011 | 0.343 ± 0.047
FNLWCRQLASIE | 0.181 ± 0.034 | 0.218 ± 0.0042 | 0.276 ± 0.0061 | 0.187 ± 0.0035 | 0.29904 ± 0.00019 | 0.284 ± 0.012 | 0.178 ± 0.0067 | 0.327 ± 0.094
FPLFCRIHLLCS | 0.138 ± 0.0083 | 0.157 ± 0.0044 | 0.2 ± 0.017 | 0.275 ± 0.0037 | 0.059 ± 0.02 | 0.0768 ± 0.011 | 0.0529 ± 0.0047 | 0.107 ± 0.0096
FPPHFLPLVFLS | 0.436 ± 0.035 | 0.5867 ± 0.0031 | 0.56 ± 0.026 | 0.67 ± 0.0083 | 0.0786 ± 0.017 | 0.0804 ± 0.02 | 0.0988 ± 0.0048 | 0.103 ± 0.0049
FPRPLPVPLAVS | 0.153 ± 0.023 | 0.217 ± 0.06 | 0.193 ± 0.033 | 0.2901 ± 0.0012 | 0.15456 ± 3.3e-05 | 0.181 ± 0.0047 | 0.221 ± 0.005 | 0.25711 ± 0.00013
FPWGRIFLRLRT | 0.34 ± 0.083 | 0.347 ± 0.025 | 0.47 ± 0.042 | 0.565 ± 0.01 | 0.5445 ± 0.0029 | 0.441 ± 0.015 | 0.5125 ± 0.0051 | 0.487 ± 0.049
FQFTLWRTLLCS | 0.1843 ± 0.00066 | 0.248 ± 0.03 | 0.218 ± 0.026 | 0.3394 ± 0.0027 | 0.113 ± 0.015 | 0.137 ± 0.021 | 0.174 ± 0.0054 | 0.189 ± 0.0077
FQLGLVFCVCSG | 0.432 ± 0.0073 | 0.438 ± 0.022 | 0.258 ± 0.041 | 0.469 ± 0.0075 | 0.244 ± 0.0076 | 0.258 ± 0.026 | 0.453 ± 0.016 | 0.367 ± 0.022
FQWILYIAKRVV | 0.556 ± 0.095 | 0.671 ± 0.04 | 0.473 ± 0.036 | 0.603 ± 0.0069 | 0.259 ± 0.059 | 0.261 ± 0.044 | 0.442 ± 0.051 | 0.338 ± 0.021
FRCPHAVKLVLV | 0.384 ± 0.021 | 0.404 ± 0.016 | 0.328 ± 0.037 | 0.471 ± 0.011 | 0.1947 ± 0.0014 | 0.214 ± 0.018 | 0.33212 ± 0.00028 | 0.311 ± 0.02
FRFSSLLYILLS | 0.223 ± 0.067 | 0.274 ± 0.018 | 0.316 ± 0.017 | 0.402 ± 0.016 | 0.0923 ± 0.012 | 0.0651 ± 0.018 | 0.0868 ± 0.021 | 0.0959 ± 0.022
FRTTGQAPPSKP | 0.674 ± 0.064 | 0.743 ± 0.013 | 0.633 ± 0.013 | 0.727 ± 0.022 | 0.64 ± 0.038 | 0.6444 ± 0.0056 | 0.71966 ± 0.0003 | 0.568 ± 0.2
FSLRLFLVLALS | 0.3032 ± 0.0029 | 0.377 ± 0.01 | 0.261 ± 0.021 | 0.395 ± 0.012 | 0.123 ± 0.013 | 0.154 ± 0.028 | 0.227 ± 0.0026 | 0.193 ± 0.0034
